Laboratory results from US20210221908A1 (LAMKAP BIO BETA, published 2021).

T1: human CEACAM6 on MKN-45 cells (human, UniProt P40199 35-320)
T1 construct: whole, on cells
T1 sequence (looked up): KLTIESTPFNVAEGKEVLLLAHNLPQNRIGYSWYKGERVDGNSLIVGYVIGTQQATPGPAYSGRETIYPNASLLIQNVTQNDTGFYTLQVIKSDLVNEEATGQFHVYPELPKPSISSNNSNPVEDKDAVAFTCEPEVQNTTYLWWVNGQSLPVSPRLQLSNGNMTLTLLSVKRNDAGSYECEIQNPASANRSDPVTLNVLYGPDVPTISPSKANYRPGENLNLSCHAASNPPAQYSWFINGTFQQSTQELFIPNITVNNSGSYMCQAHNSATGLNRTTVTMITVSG

T2: human CEACAM5 on MKN-45 cells (human, UniProt P06731 35-685)
T2 construct: endogenous CEA of MKN-45 gastric adenocarcinoma cells, which also carry CD47 and CEACAM6; UniProtKB P06731; also called CD66e
T2 sequence: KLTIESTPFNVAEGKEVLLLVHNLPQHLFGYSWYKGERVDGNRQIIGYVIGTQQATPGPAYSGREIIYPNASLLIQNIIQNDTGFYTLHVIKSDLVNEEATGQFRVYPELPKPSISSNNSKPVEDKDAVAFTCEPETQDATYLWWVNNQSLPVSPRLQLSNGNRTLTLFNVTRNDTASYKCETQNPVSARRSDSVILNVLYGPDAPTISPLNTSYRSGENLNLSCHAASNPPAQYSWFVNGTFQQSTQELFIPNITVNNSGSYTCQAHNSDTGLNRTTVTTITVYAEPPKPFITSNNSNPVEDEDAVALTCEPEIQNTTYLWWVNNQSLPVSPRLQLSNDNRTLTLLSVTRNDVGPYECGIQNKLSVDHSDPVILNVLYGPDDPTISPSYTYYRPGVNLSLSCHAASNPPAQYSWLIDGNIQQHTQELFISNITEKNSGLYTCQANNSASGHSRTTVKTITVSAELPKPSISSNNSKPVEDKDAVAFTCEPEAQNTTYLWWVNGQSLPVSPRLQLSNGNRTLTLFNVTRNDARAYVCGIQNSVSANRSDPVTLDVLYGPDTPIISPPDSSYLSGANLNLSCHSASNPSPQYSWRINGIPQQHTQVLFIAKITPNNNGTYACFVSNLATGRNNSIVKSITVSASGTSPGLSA


Assays:
[1] = biological target: T1, human CEACAM6 on MKN-45 cells; experiment: legend of FIG. 21A, FACS on MKN-45 cells
Experimental: Binding to target cells (MKN-45) expressing CD47, CEACAM5 and CEACAM6 was assessed by FACS.
(§1) Cells are harvested, counted, checked for viability and resuspended at 3×10⁶ cells/ml in FACS buffer (PBS 2% BSA, 0.1% NaN3). 100 μl of the cell suspension are distributed in V-bottom 96-well plates (3×10⁵ cells/well). The supernatant is removed by centrifugation 3 minutes at 4° C., 1300 rpm. Increasing concentrations of the antibody according to the invention are then added into the wells and incubated for 15 minutes at 4° C. Cells are washed twice with cold FACS buffer and re-incubated for further 15 minutes at 4° C. with the PE (R-phycoerythrin)-conjugated mouse anti-human IgG Fc secondary antibody (SouthernBiotech, pre-diluted 1:100 in FACS buffer). Cells are washed twice with cold FACS buffer and resuspended in 300 μl FACS buffer with 1:15000-diluted SytoxBlue (Life Technologies). Fluorescence is measured using a Cytoflex […]. Binding curves and EC50 values are obtained and calculated using GraphPad Prism? software. In the same manner binding of MAB CEA or MAB CEA1 to MKN-45 cells can be tested.

[2] = biological target: T2, human CEACAM5 on MKN-45 cells; experiment: flow cytometry (FACS) on MKN-45 cells, which express CD47, CEACAM5 and CEACAM6; the legend says K2AC39 binds CEACAM5 and CEACAM6, and the curve does not separate the two
[3] = biological target: T2, human CEACAM5 on MKN-45 cells; experiment: flow cytometry on MKN45 CEA+ cancer cells (also carry CD47)
Experimental: as §1

[4] = biological target: T3, human CD47 on MKN45 cells (human, UniProt Q08722 19-323); experiment: inhibition of SIRPα-mouseFc binding to CD47 on MKN45 cells, imaging (CX5); column 'SIRPα inhibition potency'
T3 construct: whole, on cells; also called IAP
Source text: Experimental set-up for the measurement of the SIRPα inhibition potency data shown for bispecific antibodies of this invention (results see table 2):
The detection of bound SIRPα cell-based assay monitoring the interaction of soluble SIRPα with human CD47 expressed at the surface of MKN45 is used for the detection of the blocking activity. Dose-response experiments with bispecific antibodies according to the invention allow determination of an IC50 value.
MKN45 cancer cells, expressing both CD47 and CEACAM5, are stained with CFSE violet to allow the imaging system (CX5) to detect the cells. Briefly, 3,000 stained MKN45 cells per well are seeded in a 384 optical well plate (Costar) and incubated for 50 minutes with increased concentrations of bispecific antibodies of the invention (1.9 pM to 333 nM, in quadruplicates). Then, a fixe concentration of SIRPα—mouseFc premixed with anti-mouse IgG-Fc AF647 coupled antibody (Jackson Immunoresearch diluted 1:2000) is added at 50 ng/mL final. After an incubation of 3H30 plates are acquired with the imaging system (CX5, Thermofisher) and fluorescence signals emitted by the detected bound SIRPα is recorded by the software dedicated to the imaging system. Fluorescence signals are plotted according to the dose range tested and IC50 are calculated by the software (Prism, Graphpad).

| Binder | binding result [1] | EC50 (read off the curve) [2] | EC50 [3] | IC50 [4] |
| --- | --- | --- | --- | --- |
| K2AC39 CD47xCEA bispecific antibody (bispecific antibody, human IgG1, kappa, lambda, K2 = KA3 CD47 light chain, AC39 = 1B2 CEA light chain) heavy: not shown light 1: not shown light 2: QSVLTQPPSVSAAPGQKVTISCSGSSSEITASGVSWYQQLPGTAPKLLIYDNNKRPSGIPDRFSGSKSGTSATLGITGLQTGDEADYYCGTWDFPPSRFVFGGGTKLTVLGQPKAAPSVTLFPPSSEELQANKATLVCLISDFYPGAVTVAWKADSSPVKAGVETTTPSKQSNNKYAASSYLSLTPEQWKSHRSYSCQVTHEGSTVEKTVAPTECS | binds | ~3 µg/mL |  |  |
| K2AC13 CEAxCD47 bispecific antibody (bispecific antibody, human IgG1, kappa, lambda, kappa-lambda body, human IgG1, common heavy chain; CEA arm light chain 2B8 (AC13)) heavy: not shown light 1: not shown light 2: QSALTQPASVSGSPGQSITISCTGTSSNVRYAAGVSWYQQHPGKAPKLMIYEVSNRPSGVSNRFSGSKSGNTASLTISGLQAEDEADYYCSSWDFEHGPAAKVFGGGTKLTVLGQPKAAPSVTLFPPSSEELQANKATLVCLISDFYPGAVTVAWKADSSPVKAGVETTTPSKQSNNKYAASSYLSLTPEQWKSHRSYSCQVTHEGSTVEKTVAPTECS |  |  | 190 nM | 4 nM |
| K2AC10 CEAxCD47 bispecific antibody (bispecific antibody, human IgG1, kappa, lambda, kappa-lambda body, human IgG1, common heavy chain; CEA arm light chain 1D5 (AC10)) heavy: not shown light 1: not shown light 2: QSVLTQPPSVSGAPGQRVTISCTGSSSNIYANSNVHWYQQLPGTAPKLLIYSGSNRPSGVPDRFSGSKSGTSASLAITGLQAEDEADYYCQSYDPAHNLLTAVFGGGTKLTVLGQPKAAPSVTLFPPSSEELQANKATLVCLISDFYPGAVTVAWKADSSPVKAGVETTTPSKQSNNKYAASSYLSLTPEQWKSHRSYSCQVTHEGSTVEKTVAPTECS |  |  | 1.15 nM | 0.22 nM |
| K2AC27 CEAxCD47 bispecific antibody (bispecific antibody, human IgG1, kappa, lambda, kappa-lambda body, human IgG1, common heavy chain; CEA arm light chain 2C11 (AC27)) heavy: not shown light 1: not shown light 2: QSVLTQPPSVSGAPGQRVTISCTGSSSNIGYADKVHWYQQLPGTAPKLLIYNNSDRPSGVPDRFSGSKSGTSASLAITGLQAEDEADYYCQSYDGYNMLTAVFGGGTKLTVLGQPKAAPSVTLFPPSSEELQANKATLVCLISDFYPGAVTVAWKADSSPVKAGVETTTPSKQSNNKYAASSYLSLTPEQWKSHRSYSCQVTHEGSTVEKTVAPTECS |  |  | 12.5 nM | 0.86 nM |
| K2AC26 CEAxCD47 bispecific antibody (bispecific antibody, human IgG1, kappa, lambda, kappa-lambda body, human IgG1, common heavy chain; CEA arm light chain 2F7 (AC26)) heavy: not shown light 1: not shown light 2: QSALTQPASVSGSPGQSITISCTGTSSDVKYANAVSWYQQHPGKAPKLMIYSNSIRPSGVSNRFSGSKSGNTASLTISGLQAEDEADYYCSSYDPRGNLLIRVFGGGTKLTVLGQPKAAPSVTLFPPSSEELQANKATLVCLISDFYPGAVTVAWKADSSPVKAGVETTTPSKQSNNKYAASSYLSLTPEQWKSHRSYSCQVTHEGSTVEKTVAPTECS |  |  | 12.7 nM | 0.32 nM |
| K2AC29 CEAxCD47 bispecific antibody (bispecific antibody, human IgG1, kappa, lambda, kappa-lambda body, human IgG1, common heavy chain; CEA arm light chain 2B5 (AC29)) heavy: not shown light 1: not shown light 2: QSALTQPASVSGSPGQSITISCTGTSSDVEFTNGVSWYQQHPGKAPKLMIYGFSSRPSGVSNRFSGSKSGNTASLTISGLQAEDEADYYCSSYDPPWHLLARVFGGGTKLTVLGQPKAAPSVTLFPPSSEELQANKATLVCLISDFYPGAVTVAWKADSSPVKAGVETTTPSKQSNNKYAASSYLSLTPEQWKSHRSYSCQVTHEGSTVEKTVAPTECS |  |  | 14.5 nM | 0.72 nM |
